Measurements published in publication doi:10.1101/2024.09.20.612365, “Preventing Inappropriate Signals Pre- and Post-Ligand Perception by a Toggle-Switch Mechanism of ERECTA” (bioRxiv, 2024).
Substitutions are numbered along the chain they refer to. Names and notes keep the numbering of the source. Where two headings read alike, the source gives them in different places. One block for each molecule: values may come before it.

T1: GST-PUB30 (plant U-box E3 ligase PUB30) (Arabidopsis, UniProt Q058P4 1-448)
T1 construct: U-box E3 ubiquitin ligase PUB30, Arabidopsis; source: recombinantly purified
T1 sequence (looked up): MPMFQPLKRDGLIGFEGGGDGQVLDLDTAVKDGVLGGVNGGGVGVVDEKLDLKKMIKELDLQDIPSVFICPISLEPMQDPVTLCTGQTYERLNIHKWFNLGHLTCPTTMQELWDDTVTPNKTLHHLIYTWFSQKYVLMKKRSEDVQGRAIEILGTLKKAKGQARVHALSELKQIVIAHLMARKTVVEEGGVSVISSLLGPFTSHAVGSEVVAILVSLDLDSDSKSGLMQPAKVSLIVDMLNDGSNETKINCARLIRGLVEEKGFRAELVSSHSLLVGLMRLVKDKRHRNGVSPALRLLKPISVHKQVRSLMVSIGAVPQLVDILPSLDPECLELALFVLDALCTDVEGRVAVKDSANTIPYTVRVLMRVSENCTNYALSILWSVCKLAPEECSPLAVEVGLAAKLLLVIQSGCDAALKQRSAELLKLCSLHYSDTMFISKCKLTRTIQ

T2: MBP-ER_CD_(T/S8A), phosphonull version (Arabidopsis, UniProt Q42371 602-976, Thr947 (T/S8A) | Ser950 (T/S8A) | Ser954 (T/S8A) | Ser955 (T/S8A) | Ser957 …)
T2 sequence: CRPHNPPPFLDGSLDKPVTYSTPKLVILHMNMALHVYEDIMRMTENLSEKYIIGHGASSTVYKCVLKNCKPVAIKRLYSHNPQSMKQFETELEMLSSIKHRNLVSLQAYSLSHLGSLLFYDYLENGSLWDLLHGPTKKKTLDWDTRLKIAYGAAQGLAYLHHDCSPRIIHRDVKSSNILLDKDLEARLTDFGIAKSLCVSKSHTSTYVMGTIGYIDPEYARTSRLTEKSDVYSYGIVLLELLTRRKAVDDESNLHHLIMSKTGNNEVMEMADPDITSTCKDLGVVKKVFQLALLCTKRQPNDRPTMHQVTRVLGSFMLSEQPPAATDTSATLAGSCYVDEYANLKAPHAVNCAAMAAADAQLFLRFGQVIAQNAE

T3: MBP-ER_CD_(T/S8E), phosphomimetic version (Arabidopsis, UniProt Q42371 602-976, Thr947 (T/S8E) | Ser950 (T/S8E) | Ser954 (T/S8E) | Ser955 (T/S8E) | Ser957 …)
T3 sequence: T2 sequence with A346E, A349E, A353E, A354E, A356E, A358E, A371E, A374E

T4: MBP-ER_CD_(T/S8A), phosphonull version (Arabidopsis, UniProt Q42371 602-976, Thr947 (T/S8A) | Ser950 (T/S8A) | Ser954 (T/S8A) | Ser955 (T/S8A) | Ser957 …)
T4 construct: ERECTA (ER), Arabidopsis; The eight sites: six detected (Thr947, Ser950, Ser954, Ser955, Ser957, Ser972); source: recombinantly purified
T4 sequence (looked up): T2 sequence

B1: MBP-fused full-length ER cytoplasmic domain (MBP-ER_CD) (domain or fragment, Arabidopsis, UniProt Q42371 602-976, looked up)
chain: T2 sequence with A346T, A349S, A353S, A354S, A356S, A358S, A371S, A374S
notes: ERECTA (ER) LRR receptor kinase, Arabidopsis; full-length cytoplasmic domain (juxtamembrane domain, kinase domain, C-terminal tail); source: expressed and purified (recombinantly purified)
B2: GST-BKI1 (BRI1 KINASE INHIBITOR 1) (natural protein, Arabidopsis, UniProt Q9FMZ0 1-337, looked up)
chain: METNLQQVKNSSQTFSEKQNPKQEASPSPISSTCSSPSHDFSFTISLQPLSSSSKHISPTLRSPSKTTSSYQQTDPFAVDLSPADEIFFHGHLLPLHLLSHLPVSPRTSTGSYNDGFTLPVKDILPDQPTNNNNNTENAITNISTEAKDDNTEDKAEGEIRVKTKPIKSFSLFGLSKWRKGFESNEREQEQQQQKIKKPMSLDLSHAVKKYIRMLFQKRGNGTQFWNRRQTSSYSFSSSLMGPNGNSKTMINGSYNKRDLIRGRRGELFSAPASMRTSPTNSGHLRVSTAGLSSSSGSTSSSSSDSTMEELQAAIQAAIAHCKNSSAVDRDDKVKDS
notes: source: recombinantly purified
B3: MBP-ER_CD_(T/S8E), phosphomimetic version (domain or fragment, Arabidopsis, UniProt Q42371 602-976, looked up)
chain: T2 sequence with A346E, A349E, A353E, A354E, A356E, A358E, A371E, A374E
notes: ERECTA (ER), Arabidopsis; source: recombinantly purified
B4: GST-PUB30 (plant U-box E3 ligase PUB30) (enzyme)
chain: T1 sequence (looked up)

Assays:
[1] = molecular target: GST-BKI1 (BRI1 KINASE INHIBITOR 1) (Arabidopsis) (UniProt Q9FMZ0); assay: BLI; recombinantly purified GST-BKI1 or GST-PUB30 and MBP-ER_CD variants at seven concentrations (156.25, 312.5, 625, 1,250, 2,500, 5,000 and 10,000 nM); representative of three independent experiments
[2] = molecular target: T1, GST-PUB30 (plant U-box E3 ligase PUB30); assay: as above
[3] = molecular target: T2, MBP-ER_CD_(T/S8A), phosphonull version; assay: BLI
[4] = molecular target: T3, MBP-ER_CD_(T/S8E), phosphomimetic …; assay: BLI
[5] = molecular target: B1; assay: BLI; recombinantly purified GST-BKI1 or GST-PUB30 and MBP-ER_CD variants at seven concentrations (156.25, 312.5, 625, 1,250, 2,500, 5,000 and 10,000 nM); representative of three independent experiments; conditions: both partners purified
[6] = molecular target: T4, MBP-ER_CD_(T/S8A), phosphonull version; assay: as above; conditions: both partners purified

Kd [1]: 47.7 µM | Kd [2]: 805 nM
Molecule: MBP-ER_CD_(ΔCTα-Helix) (domain or fragment)

Molecule: B1
Kd ([2]; both partners purified): 393 ± 48 nM

Molecule: B2
Kd [3]: 3.8 µM | Kd [4]: 18 µM | Kd [5]: 3.7 ± 0.7 µM | binding result [6]: binds

Molecule: B3
binding result ([2]; both partners purified): binds

Molecule: B4
Kd [3]: 9.5 µM | Kd [4]: 0.194 µM
